Data from article PMC11250742, “Preclinical evaluation of CXCR4 peptides for targeted radionuclide therapy in glioblastoma” (EJNMMI Radiopharmacy and Chemistry, 2024).
Where a SMILES comes first, the peptide text is derived from it. Bridges are numbered along the chain shown (N, C = ends). [ ]: non-standard residue; d: D form. The star is where a group is joined. DOTA = O=C(O)CN1CCN(CC(=O)O)CCN(CC(=O)*)CCN(CC(=O)O)CC1; 2Nal = N[C@@H](Cc1ccc2ccccc2c1)C(=O)O; Cit = NC(=O)NCCC[C@H](N)C(=O)O

What was measured:
in vivo = test: in vivo; set-up: species or system BALB/c nude mice; details: mouse; for tissue uptake dose at 4 h / SUV at 4 h: BALB/c nude, iv, total radioactivity; for tissue uptake dose at 4 h: %IA
Procedure: For the generation of the subcutaneous GBM xenograft model, BALB/c nude mice (between 8 and 12 weeks old) were anesthetised with 2.5% isoflurane in O2 at a flow rate of 0.2 L/min and subcutaneously injected on the right shoulder with 3 × 10^6 U87-CXCR4 + cells resuspended in a 1:1 mixture of PBS and Cultrex BME (R&D Systems, Bio-Techne, Minnesota, US). Tumours were left to grow for ten days before the start of the experiment. Tumour volumes were calculated as length × width × height. Three days before the experiment, the mean tumour volumes of all mice were 255 ± 119 mm^3.
All animals were anesthetised with 2.5% isoflurane in O2 at a flow rate of 1 L/min and intravenously (IV) injected with 1.5 MBq of [^177Lu]Lu-POL3026 via a tail vein (radiolabelled with a Am of 53.1 ± 0.55 MBq/nmol). The mice were sacrificed by an overdose of pentobarbital (200 µL of 60 mg/mL) at 1-, 4-, 24- and 168 h post-injection (p.i.) (n = 3–4 per time point), followed by cardiac puncture. Organs of interest were collected in tarred tubes and weighed. The activity in the different organs was measured in the automated gamma counter described above. For the calculation of the total activity in the blood, bone, and muscle, the masses were assumed to be 7, 12 and 40% of the total body mass, respectively. Data is shown as standardised uptake value (SUV), calculated using the following equation:
SUV = [Activity in organ (cpm) / Organ weight (g)] / [(Injected activity (cpm) / Total body weight (g)].
A separate study was performed to evaluate the specificity of the uptake of [^177Lu]Lu-POL3026 in U87-CXCR4 + subcutaneous tumours and the rest of the organs. This was done by creating two groups (n = 4 / group), one group pre-injected intraperitoneally (IP) with 5 mg/kg of AMD11070, 30 min before the IV injection of [^177Lu]Lu-POL3026, while the other group was pre-injected with the DMSO vehicle. Mice from both groups were sacrificed 4 h post-injection and organs were collected as previously described.

U87-CXCR4 + cells = test: MTS cell viability assay; format: cell-based; details: 2 h
Procedure: Cell viability assays were performed using increasing activity concentrations of the radiolabelled peptides (1 to 20 MBq/mL), incubated with U87-CXC4 + cells for four hours at 37 °C, 5% CO2. After the incubation period, cells were washed twice with PBS and replenished with complete media. After five and seven days of treatment, the cell media was removed and MTS (3-(4,5-dimethylthiazol-2-yl)-5-(3-carboxymethoxyphenyl)-2-(4-sulfophenyl)-2 H-tetrazolium) reagent added, prepared according to manufacturer’s instructions (CellTiter 96® AQueous One Solution Cell Proliferation Assay, Promega, Wisconsin, United States). To determine the effect of the radiation originating from unbound radiolabelled peptides, cells were treated with equivalent activity concentrations of [^177Lu]Lu-DTPA. Triton X-100 (0.1%) was used as a positive control. Vehicle includes the NaOAc radiolabeling buffer at the concentration used for the 20 MBq/mL peptide solutions. The cells were incubated for 0.5–1 h with the MTS reagent at 37 °C, 5% CO2. Absorbance was measured at 490 nm using a BioTek Synergy H1 plate reader (Agilent Technologies, Mechelen, Belgium). Cell viability was normalised to the vehicle and calculated as percentage of cell viability.

Q: Which results are given for `N=C(N)NCCC[C@@H]1NC(=O)[C@@H]2CSSC[C@H](NC(=O)[C@H](Cc3ccc4ccccc4c3)NC(=O)[C@H](CCCNC(=N)N)NC(=O)[C@H](CCCNC(=N)N)NC(=O)[C@H]3CCCN3C(=O)CNC1=O)C(=O)N[C@@H](Cc1ccc(O)cc1)C(=O)N[C@@H](CCC(N)=O)C(=O)N[C@@H](CCCCNC(=O)CN1CCN(CC(=O)O)CCN(CC(=O)O)CCN(CC(=O)O)CC1)C(=O)N1CCC[C@@H]1C(=O)N1CCC[C@H]1C(=O)N[C@@H](Cc1ccc(O)cc1)C(=O)N[C@@H](CCCNC(=N)N)C(=O)N[C@@H](CCCNC(N)=O)C(=O)N2` [[^177Lu]Lu-DOTA-POL3026, metal not drawn] (cyclo(RR[2Nal]CYQK(DOTA)[dP]PYR[Cit]CRG[dP]); disulfide 4-13)?
A: tissue uptake dose at 4 h (in vivo; 5 mg/kg, Blood): 0.33 %ID; tissue uptake dose at 4 h (in vivo; 5 mg/kg, Blood on tissue paper): 0.97 %ID; tissue uptake dose at 4 h (in vivo; 5 mg/kg, Bone): 5.16 %ID; tissue uptake dose at 4 h (in vivo; 5 mg/kg, Brain): 0.01 %ID; tissue uptake dose at 4 h (in vivo; 5 mg/kg, Carcass): 9.91 %ID; tissue uptake dose at 4 h (in vivo; 5 mg/kg, Heart): 0.03 %ID; tissue uptake dose at 4 h (in vivo; 5 mg/kg, Intestines): 1.17 %ID; tissue uptake dose at 4 h (in vivo; 5 mg/kg, Kidneys): 5.44 %ID; tissue uptake dose at 4 h (in vivo; 5 mg/kg, Liver): 33.8 %ID; tissue uptake dose at 4 h (in vivo; 5 mg/kg, Lungs): 0.35 %ID; tissue uptake dose at 4 h (in vivo; 5 mg/kg, Muscle): 1.02 %ID; tissue uptake dose at 4 h (in vivo; 5 mg/kg, Pancreas): 0.02 %ID; tissue uptake dose at 4 h (in vivo; 5 mg/kg, Spleen): 0.51 %ID; tissue uptake dose at 4 h (in vivo; 5 mg/kg, Stomach): 0.06 %ID; tissue uptake dose at 4 h (in vivo; 5 mg/kg, Tail): 3.44 %ID; tissue uptake dose at 4 h (in vivo; 5 mg/kg, Tumour): 1.68 %ID; SUV at 4 h (in vivo; 5 mg/kg, Blood): 0.05 SUV; SUV at 4 h (in vivo; 5 mg/kg, Bone): 0.43 SUV; SUV at 4 h (in vivo; 5 mg/kg, Heart): 0.06 SUV; SUV at 4 h (in vivo; 5 mg/kg, Kidneys): 3.74 SUV; SUV at 4 h (in vivo; 5 mg/kg, Liver): 5.76 SUV; SUV at 4 h (in vivo; 5 mg/kg, Lungs): 0.57 SUV; SUV at 4 h (in vivo; 5 mg/kg, Muscle): 0.03 SUV; SUV at 4 h (in vivo; 5 mg/kg, Pancreas): 0.03 SUV; SUV at 4 h (in vivo; 5 mg/kg, Spleen): 1.41 SUV; SUV at 4 h (in vivo; 5 mg/kg, Tumour): 1.59 SUV; tissue uptake dose at 4 h (in vivo; 1.5 MBq, Blood): 2.91 %ID; tissue uptake dose at 4 h (in vivo; 1.5 MBq, Blood on tissue paper): 1.34 %ID; tissue uptake dose at 4 h (in vivo; 1.5 MBq, Bone): 6.85 %ID; tissue uptake dose at 4 h (in vivo; 1.5 MBq, Brain): 0.02 %ID; tissue uptake dose at 4 h (in vivo; 1.5 MBq, Carcass): 20.3 %ID; tissue uptake dose at 4 h (in vivo; 1.5 MBq, Heart): 0.16 %ID; tissue uptake dose at 4 h (in vivo; 1.5 MBq, Intestines): 2.43 %ID; tissue uptake dose at 4 h (in vivo; 1.5 MBq, Kidneys): 5.12 %ID; tissue uptake dose at 4 h (in vivo; 1.5 MBq, Liver): 33.5 %ID; tissue uptake dose at 4 h (in vivo; 1.5 MBq, Lungs): 1.23 %ID; tissue uptake dose at 4 h (in vivo; 1.5 MBq, Muscle): 3.35 %ID; tissue uptake dose at 4 h (in vivo; 1.5 MBq, Pancreas): 0.12 %ID; tissue uptake dose at 4 h (in vivo; 1.5 MBq, Spleen): 1.74 %ID; tissue uptake dose at 4 h (in vivo; 1.5 MBq, Stomach): 0.18 %ID; tissue uptake dose at 4 h (in vivo; 1.5 MBq, Tail): 2.77 %ID; tissue uptake dose at 4 h (in vivo; 1.5 MBq, Tumour): 3.35 %ID; SUV at 4 h (in vivo; 1.5 MBq, Blood): 0.42 SUV; SUV at 4 h (in vivo; 1.5 MBq, Bone): 0.57 SUV; SUV at 4 h (in vivo; 1.5 MBq, Brain): 0.01 SUV; SUV at 4 h (in vivo; 1.5 MBq, Heart): 0.37 SUV; SUV at 4 h (in vivo; 1.5 MBq, Kidneys): 3.84 SUV; SUV at 4 h (in vivo; 1.5 MBq, Liver): 6.18 SUV; SUV at 4 h (in vivo; 1.5 MBq, Lungs): 2.29 SUV; SUV at 4 h (in vivo; 1.5 MBq, Muscle): 0.08 SUV; SUV at 4 h (in vivo; 1.5 MBq, Pancreas): 0.15 SUV; SUV at 4 h (in vivo; 1.5 MBq, Spleen): 4.83 SUV; SUV at 4 h (in vivo; 1.5 MBq, Tumour): 2.58 SUV; SUV, Brain (in vivo; ip, 5 mg/kg): 0.00; cell viability (U87-CXCR4 + cells): 52.3 ± 9.9%
